Test results from IntAct's records for PubMed 19074269.

B1: Basic leucine zipper transcriptional factor ATF-like 2 (Homo sapiens), Q8N1L9-1 (parent)
chain: MHLCGGNGLLTQTDPKEQQRQLKKQKNRAAAQRSRQKHTDKADALHQQHESLEKDNLALRKEIQSLQAELAWWSRTLHVHERLCPMDCASCSAPGLLGCWDQAEGLLGPGPQGQHGCREQLELFQTPGSCYPAQPLSPGPQPHDSPSLLQCPLPSLSLGPAVVAEPPVQLSPSPLLFASHTGSSLQGSSSKLSALQPSLTAQTAPPQPLELEHPTRGKLGSSPDNPSSALGLARLQSREHKPALSAATWQGLVVDPSPHPLLAFPLLSSAQVHF

Variants of: B1
Conditions: with jun_human JUN

| Variant | effect of a mutation on the interaction |
| --- | --- |
| MHLCGGNGLLTQTDPKEQQRQLKKQKNRAAAQRSRQKHTDKADALHQQHESLEKDNLAPRKEIQSLQAELAWWSRTLHVHERLCPMDCASCSAPGLLGCWDQAEGLLGPGPQGQHGCREQLELFQTPGSCYPAQPLSPGPQPHDSPSLLQCPLPSLSLGPAVVAEPPVQLSPSPLLFASHTGSSLQGSSSKLSALQPSLTAQTAPPQPLELEHPTRGKLGSSPDNPSSALGLARLQSREHKPALSAATWQGLVVDPSPHPLLAFPLLSSAQVHF [L59P] | disrupting interaction |
